Reference: paper PMC10716145, “ZNF524 directly interacts with telomeric DNA and supports telomere integrity”
Changes are numbered by the printed parent chain.

Key:
[1] = molecular target: T1, ZNF524 ZF1-4 minimal domain (human, UniProt Q96C55 110-223); assay: ITC; ITC: 20 mM Tris-HCl pH 7.5, 150 mM NaCl, 20 C; pull-down: 50 mM Tris-HCl pH 7.5, 150 mM NaCl, 0.5% IGEPAL, 5 mM MgCl2, 1 mM DTT, salmon sperm DNA, 4 C; conditions: protein: recombinant; tags: none (GST removed by TEV); blunt
T1 sequence: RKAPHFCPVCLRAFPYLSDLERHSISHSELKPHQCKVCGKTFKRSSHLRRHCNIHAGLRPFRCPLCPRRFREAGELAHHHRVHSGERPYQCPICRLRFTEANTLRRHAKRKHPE

[2] = molecular target: T1, ZNF524 ZF1-4 minimal domain; assay: ITC; annealed in 100 mM NaCl; ITC: 20 mM Tris-HCl pH 7.5, 150 mM NaCl, 20 C; pull-down: 50 mM Tris-HCl pH 7.5, 150 mM NaCl, 0.5% IGEPAL, 5 mM MgCl2, 1 mM DTT, salmon sperm DNA, 4 C; conditions: protein: recombinant, tags: none (GST removed by TEV), single strand
ZNF524 ZF1-4 (crystal) = molecular target: T2, ZNF524 ZF1-4 (crystal) (human, UniProt Q96C55 107-237); assay: crystal structure 2.40 A; Zn2+; ITC: 20 mM Tris-HCl pH 7.5, 150 mM NaCl, 20 C; pull-down: 50 mM Tris-HCl pH 7.5, 150 mM NaCl, 0.5% IGEPAL, 5 mM MgCl2, 1 mM DTT, salmon sperm DNA, 4 C; conditions: protein: recombinant; tags: none (GST removed by TEV); 5' overhang 1 nt at each end (A and T)
T2 sequence: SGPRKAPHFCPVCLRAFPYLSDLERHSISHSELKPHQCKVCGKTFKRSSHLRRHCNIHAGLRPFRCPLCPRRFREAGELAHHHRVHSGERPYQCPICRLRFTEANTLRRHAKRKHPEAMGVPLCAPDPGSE

ZNF524 ZF1-4 R180A = molecular target: T3, ZNF524 ZF1-4 R180A (human, UniProt Q96C55 110-223, R180A); assay: ITC; ITC: 20 mM Tris-HCl pH 7.5, 150 mM NaCl, 20 C; pull-down: 50 mM Tris-HCl pH 7.5, 150 mM NaCl, 0.5% IGEPAL, 5 mM MgCl2, 1 mM DTT, salmon sperm DNA, 4 C; conditions: protein: recombinant; tags: none (GST removed by TEV); blunt
T3 sequence: T1 sequence with R71A

ZNF524 ZF3-4 = molecular target: T4, ZNF524 ZF3-4 (human, UniProt Q96C55 166-223); assay: as above; conditions: protein: recombinant; tags: none (GST removed by TEV); blunt
T4 sequence: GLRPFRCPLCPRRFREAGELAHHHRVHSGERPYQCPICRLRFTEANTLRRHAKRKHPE

ZNF524 ZF1-4 R159A = molecular target: T5, ZNF524 ZF1-4 R159A (human, UniProt Q96C55 110-223, R159A); assay: as above; conditions: protein: recombinant; tags: none (GST removed by TEV); blunt
T5 sequence: T1 sequence with R50A

[3] = molecular target: T6, ZNF524 ZF2-4 (ZF1 removed) (human, UniProt Q96C55 138-223); assay: as above; conditions: protein: recombinant; tags: none (GST removed by TEV); blunt
T6 sequence: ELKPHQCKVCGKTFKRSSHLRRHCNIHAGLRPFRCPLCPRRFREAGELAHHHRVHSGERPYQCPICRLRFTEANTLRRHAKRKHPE

ZNF524 ZF2-3 = molecular target: T7, ZNF524 ZF2-3 (human, UniProt Q96C55 138-196); assay: as above; conditions: protein: recombinant; tags: none (GST removed by TEV); blunt
T7 sequence: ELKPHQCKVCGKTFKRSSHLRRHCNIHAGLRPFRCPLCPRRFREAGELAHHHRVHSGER

ZNF524 ZF1-4 R215A = molecular target: T8, ZNF524 ZF1-4 R215A (human, UniProt Q96C55 110-223, R215A); assay: as above; conditions: protein: recombinant; tags: none (GST removed by TEV); blunt
T8 sequence: T1 sequence with R106A

ZNF524 ZF1-4 S155A = molecular target: T9, ZNF524 ZF1-4 S155A (human, UniProt Q96C55 110-223, S155A); assay: as above; conditions: protein: recombinant; tags: none (GST removed by TEV); blunt
T9 sequence: T1 sequence with S46A

ZNF524 ZF1-4 E184A = molecular target: T10, ZNF524 ZF1-4 E184A (human, UniProt Q96C55 110-223, E184A); assay: as above; conditions: protein: recombinant; tags: none (GST removed by TEV); blunt
T10 sequence: T1 sequence with E75A

ZNF524 ZF1-4 H156A = molecular target: T11, ZNF524 ZF1-4 H156A (human, UniProt Q96C55 110-223, H156A); assay: as above; conditions: protein: recombinant; tags: none (GST removed by TEV); blunt
T11 sequence: T1 sequence with H47A

ZNF524 ZF2M = molecular target: T12, ZNF524 ZF2M (human, UniProt Q96C55 110-223, R153A;S155A;H156A;R159A); assay: as above; conditions: protein: recombinant; tags: none (GST removed by TEV); blunt
T12 sequence: T1 sequence with R44A, S46A, H47A, R50A

ZNF524 ZF1-4 R131A = molecular target: T13, ZNF524 ZF1-4 R131A (human, UniProt Q96C55 110-223, R131A); assay: as above; conditions: protein: recombinant; tags: none (GST removed by TEV); blunt
T13 sequence: T1 sequence with R22A

ZNF524 ZF1-4 E181A = molecular target: T14, ZNF524 ZF1-4 E181A (human, UniProt Q96C55 110-223, E181A); assay: as above; conditions: protein: recombinant; tags: none (GST removed by TEV); blunt
T14 sequence: T1 sequence with E72A

ZNF524 ZF1-4 R153A = molecular target: T15, ZNF524 ZF1-4 R153A (human, UniProt Q96C55 110-223, R153A); assay: as above; conditions: protein: recombinant; tags: none (GST removed by TEV); blunt
T15 sequence: T1 sequence with R44A

ZNF524 ZF1-4 N211G = molecular target: T16, ZNF524 ZF1-4 N211G (human, UniProt Q96C55 110-223, N211G); assay: as above; conditions: protein: recombinant; tags: none (GST removed by TEV); blunt
T16 sequence: T1 sequence with N102G

[4] = molecular target: T17, ZNF524 ZF1-3 (ZF4 removed) (human, UniProt Q96C55 110-196); assay: as above; conditions: protein: recombinant; tags: none (GST removed by TEV); blunt
T17 sequence: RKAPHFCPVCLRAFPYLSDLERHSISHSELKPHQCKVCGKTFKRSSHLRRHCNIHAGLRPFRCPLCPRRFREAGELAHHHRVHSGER

B1: TTGGGG duplex (dsDNA)
DNA 1: GGTTGGGGTTGG
DNA 2: CCAACCCCAACC
B1 gave a Kd [1] of 330 ± 130 nM.

TTAGGGTTAGGGTTAGGGTTAGGG (ssDNA) [(TTAGGG)4-ssDNA]: no binding [2].

B2: telomeric crystal duplex (dsDNA)
DNA 1: AGGGTTAGGGTTAGG
DNA 2: TCCTAACCCTAACCC
B2: binds (ZNF524 ZF1-4 (crystal)).

B3: TGAGGG duplex (dsDNA)
DNA 1: GGTGAGGGTGAG
DNA 2: CTCACCCTCACC
Work on B3 yielded a Kd [1] of 270 ± 110 nM.

B4: GTGAGT duplex (dsDNA)
DNA 1: GTGTGAGTGTGA
DNA 2: TCACACTCACAC
B4: no binding [1].

B5: TCAGGG duplex (dsDNA)
DNA 1: GGTCAGGGTCAG
DNA 2: CTGACCCTGACC
With B5 the Kd [1] was 280 ± 40 nM.

B6: TTAGGG 12-bp duplex (dsDNA)
DNA 1: GGTTAGGGTTAG
DNA 2: CTAACCCTAACC
With B6 the Kd (ZNF524 ZF1-4 R180A) was 410 ± 80 nM, the binding result (ZNF524 ZF3-4) was “no binding” and the Kd (ZNF524 ZF1-4 R159A) was 100 ± 90 nM. For the same binder, the Kd [3] was 620 ± 100 nM, the Kd (ZNF524 ZF2-3) was 1210 ± 790 nM and the Kd [1] was 90 ± 20 nM. The Kd (ZNF524 ZF1-4 R215A) was 220 ± 60 nM, the Kd (ZNF524 ZF1-4 S155A) was 250 ± 30 nM and the Kd (ZNF524 ZF1-4 E184A) was 230 ± 130 nM. The Kd (ZNF524 ZF1-4 H156A) was 60 ± 40 nM, the binding result (ZNF524 ZF2M) was “no binding” and the Kd (ZNF524 ZF1-4 R131A) was 340 ± 50 nM. It also gave a Kd (ZNF524 ZF1-4 E181A) of 420 ± 90 nM, a Kd (ZNF524 ZF1-4 R153A) of 150 ± 40 nM and a Kd (ZNF524 ZF1-4 N211G) of 170 ± 30 nM. The Kd [4] was 590 ± 150 nM.
